Assay results as given in PMC11574364.

T1: HIS-QKI (RNA-binding domain array) (human, UniProt Q96PU8 1-341)
T1 sequence: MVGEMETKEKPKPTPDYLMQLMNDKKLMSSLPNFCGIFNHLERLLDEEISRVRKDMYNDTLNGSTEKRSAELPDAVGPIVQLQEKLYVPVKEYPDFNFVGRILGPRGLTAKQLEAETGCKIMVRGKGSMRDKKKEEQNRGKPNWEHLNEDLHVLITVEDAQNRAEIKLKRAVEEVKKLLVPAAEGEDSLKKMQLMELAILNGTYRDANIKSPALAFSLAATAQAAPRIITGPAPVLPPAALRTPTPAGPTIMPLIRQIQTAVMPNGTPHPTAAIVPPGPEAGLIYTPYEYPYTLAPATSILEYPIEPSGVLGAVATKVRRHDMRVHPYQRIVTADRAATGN

T2: QKI (recombinant His-QKI) (UniProt Q96PU8)
T2 sequence: T1 sequence

T3: QKI (human ORF array) (human, UniProt Q96PU8 1-341)
T3 sequence: T1 sequence

T4: ZNF597 (human, UniProt Q96LX8 1-424)
T4 sequence: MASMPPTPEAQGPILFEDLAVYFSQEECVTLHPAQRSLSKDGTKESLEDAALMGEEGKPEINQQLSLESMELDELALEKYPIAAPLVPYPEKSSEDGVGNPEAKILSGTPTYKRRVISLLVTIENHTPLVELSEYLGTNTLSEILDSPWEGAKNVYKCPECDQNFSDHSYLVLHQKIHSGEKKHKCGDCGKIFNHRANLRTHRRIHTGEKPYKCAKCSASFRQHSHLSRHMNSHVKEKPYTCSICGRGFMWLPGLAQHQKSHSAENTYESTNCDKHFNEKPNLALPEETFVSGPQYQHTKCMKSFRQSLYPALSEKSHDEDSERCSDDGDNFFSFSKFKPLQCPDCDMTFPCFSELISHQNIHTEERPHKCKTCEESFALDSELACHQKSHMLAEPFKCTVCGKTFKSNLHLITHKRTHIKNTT

T5: ARL10 (human, UniProt Q8N8L6 1-244)
T5 sequence: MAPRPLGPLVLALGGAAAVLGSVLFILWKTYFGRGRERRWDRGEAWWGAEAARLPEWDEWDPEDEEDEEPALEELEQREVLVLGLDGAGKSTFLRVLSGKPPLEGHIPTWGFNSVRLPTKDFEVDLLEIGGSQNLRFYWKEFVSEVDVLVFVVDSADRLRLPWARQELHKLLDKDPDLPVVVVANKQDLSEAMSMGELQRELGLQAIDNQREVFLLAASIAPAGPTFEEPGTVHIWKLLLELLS

T6: ISY1 (human, UniProt Q9ULR0 1-285)
T6 sequence: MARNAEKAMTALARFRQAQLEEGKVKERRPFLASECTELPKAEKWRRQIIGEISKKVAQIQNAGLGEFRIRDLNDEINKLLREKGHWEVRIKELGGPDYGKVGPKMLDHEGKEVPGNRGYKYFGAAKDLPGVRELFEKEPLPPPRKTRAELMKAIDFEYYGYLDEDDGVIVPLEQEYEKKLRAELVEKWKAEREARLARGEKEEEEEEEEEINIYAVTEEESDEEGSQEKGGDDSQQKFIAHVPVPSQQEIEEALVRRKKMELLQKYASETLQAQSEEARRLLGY


Each molecule was assayed against T1, HIS-QKI (RNA-binding domain array) (assay: protein microarray probed with biotinylated miRNA; Domain array: 20 mM Tris-HCl pH 7.4, 200 mM KCl, 0.2 mM EDTA, 0.05% NP40, 2 ug/ul heparin, overnight 4 C. ORF array: PBS pH 7.0 with RNase inhibitor, 100 ng RNA; high values mean tight binding). Conditions: not given.
Work on UGAGGUAGUAGGUUGUAUAGUU (ssRNA) [let-7a biotin/Cy3] yielded a binding signal of 336 ± 27.5 fluorescence intensity.
For UGAGGUAGUAGGUUGUGUGGUU (ssRNA) [let-7b biotin/Cy3], the binding signal was 1340 ± 56.7 fluorescence intensity.
Work on CAGUGCAAUGAUGAAAGGGCAU (ssRNA) [miR-130b biotin/Cy3] yielded a binding signal of 428 ± 18.2 fluorescence intensity.
Molecule UAGCUUAUCAGACUGAUGUUGA (ssRNA) [miR-21 biotin/Cy3] has a binding signal of 26.4 ± 0.354 fluorescence intensity.
AGAGGUAGUAGGUUGCAUAGUU (ssRNA) [let-7d biotin/Cy3] showed a binding signal of 1210 ± 167 fluorescence intensity.
With UGAGGUAGUAGGUUGUAUGGUU (ssRNA) [let-7c biotin/Cy3] the binding signal was 1280 ± 235 fluorescence intensity.

What follows are molecules tested against T2, QKI (recombinant His-QKI) (assay: fluorescence polarization). Conditions: 2 mM Mg2+; FP: 20 mM HEPES pH 7.4, 150 mM NaCl, 2 mM MgCl2, 1 U/ul RiboLock, 10 mM DTT, 3 nM Cy3-RNA, 5 min, room temperature; domain array: 20 mM Tris-HCl pH 7.4, 200 mM ….
For UAGCUUAUCAGACUGAUGUUGA [miR-21-Cy3], the Kd was 48.5 nM.
CAGUGCAAUGAUGAAAGGGCAU [miR-130b-Cy3] was tested, and the Kd was 7.03 nM.
Work on UGAGGUAGUAGGUUGUGUGGUU [let-7b-Cy3] yielded a Kd of 8.07 nM.

The molecules below were run against T3, QKI (human ORF array) (assay: protein microarray; FP: 20 mM HEPES pH 7.4, 150 mM NaCl, 2 mM MgCl2, 1 U/ul RiboLock, 10 mM DTT, 3 nM Cy3-RNA, 5 min, room temperature; domain array: 20 mM Tris-HCl pH 7.4, 200 mM). Conditions: not given.
UGAGGUAGUAGGUUGUGUGGUU (ssRNA, 5' phosphate; amino-C6 U at position 18) [let-7b (internal labeling)]: binds.

What follows are molecules tested against ZIC3 (human, UniProt O60481 1-467) in the same assay as above. Conditions: not given.
ZIC3, sequence (O60481 whole entry): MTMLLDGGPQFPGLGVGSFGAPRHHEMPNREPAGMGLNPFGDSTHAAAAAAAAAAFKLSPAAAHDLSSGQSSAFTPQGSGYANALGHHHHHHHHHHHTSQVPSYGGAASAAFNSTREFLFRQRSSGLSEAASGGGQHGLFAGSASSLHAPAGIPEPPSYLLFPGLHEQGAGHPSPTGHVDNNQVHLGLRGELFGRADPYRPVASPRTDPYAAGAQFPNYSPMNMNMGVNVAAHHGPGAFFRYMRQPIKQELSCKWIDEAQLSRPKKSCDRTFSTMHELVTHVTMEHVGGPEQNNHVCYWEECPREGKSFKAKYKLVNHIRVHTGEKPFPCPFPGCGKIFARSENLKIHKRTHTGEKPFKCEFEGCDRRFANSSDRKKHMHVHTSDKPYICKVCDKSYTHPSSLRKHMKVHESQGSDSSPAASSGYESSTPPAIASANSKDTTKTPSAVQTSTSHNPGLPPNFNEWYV
CAGUGCAAUGAUGAAAGGGCAU (ssRNA) [miR-130b (internal labeling)]: binds.
UAGCUUAUCAGACUGAUGUUGA (ssRNA) [miR-21 (internal labeling)]: binds.
UGAGGUAGUAGGUUGUGUGGUU (ssRNA, 5' phosphate; amino-C6 U at position 18) [let-7b (internal labeling)]: binds.

Each molecule was assayed against ZNF490 (human, UniProt Q9ULM2 1-529) in the same assay as above. Conditions: not given.
ZNF490, sequence (Q9ULM2 whole entry): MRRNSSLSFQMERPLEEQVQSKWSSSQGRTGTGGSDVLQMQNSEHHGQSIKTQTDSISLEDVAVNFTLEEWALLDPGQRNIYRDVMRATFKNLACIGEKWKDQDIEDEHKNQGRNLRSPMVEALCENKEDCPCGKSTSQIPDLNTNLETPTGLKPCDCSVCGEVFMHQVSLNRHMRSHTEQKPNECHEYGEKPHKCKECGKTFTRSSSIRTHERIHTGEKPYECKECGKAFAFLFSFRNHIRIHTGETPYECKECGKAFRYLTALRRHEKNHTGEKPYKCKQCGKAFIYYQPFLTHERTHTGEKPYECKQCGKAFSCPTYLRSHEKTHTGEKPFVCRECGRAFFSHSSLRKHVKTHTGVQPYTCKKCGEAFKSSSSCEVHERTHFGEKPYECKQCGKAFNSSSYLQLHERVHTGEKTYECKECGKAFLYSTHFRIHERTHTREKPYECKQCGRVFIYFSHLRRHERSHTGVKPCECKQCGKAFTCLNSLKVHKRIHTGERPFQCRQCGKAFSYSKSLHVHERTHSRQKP
CAGUGCAAUGAUGAAAGGGCAU (ssRNA) [miR-130b (internal labeling)]: binds.
UAGCUUAUCAGACUGAUGUUGA (ssRNA) [miR-21 (internal labeling)]: binds.
UGAGGUAGUAGGUUGUGUGGUU (ssRNA, 5' phosphate; amino-C6 U at position 18) [let-7b (internal labeling)]: binds.

The molecules below were run against T4, ZNF597 in the same assay as above. Conditions: not given.
CAGUGCAAUGAUGAAAGGGCAU (ssRNA) [miR-130b (internal labeling)]: binds.
UAGCUUAUCAGACUGAUGUUGA (ssRNA) [miR-21 (internal labeling)]: binds.
UGAGGUAGUAGGUUGUGUGGUU (ssRNA, 5' phosphate; amino-C6 U at position 18) [let-7b (internal labeling)]: binds.

Each molecule was assayed against T5, ARL10 in the same assay as above. Conditions: not given.
CAGUGCAAUGAUGAAAGGGCAU (ssRNA) [miR-130b (internal labeling)]: binds.
UAGCUUAUCAGACUGAUGUUGA (ssRNA) [miR-21 (internal labeling)]: binds.
UGAGGUAGUAGGUUGUGUGGUU (ssRNA, 5' phosphate; amino-C6 U at position 18) [let-7b (internal labeling)]: binds.

The molecules below were run against T6, ISY1 in the same assay as above. Conditions: not given.
CAGUGCAAUGAUGAAAGGGCAU (ssRNA) [miR-130b (internal labeling)]: binds.
UAGCUUAUCAGACUGAUGUUGA (ssRNA) [miR-21 (internal labeling)]: binds.
UGAGGUAGUAGGUUGUGUGGUU (ssRNA, 5' phosphate; amino-C6 U at position 18) [let-7b (internal labeling)]: binds.
